Measurements taken from US20260207717A1, “METHODS FOR TREATING INFANTILE-ONSET POMPE DISEASE IN PEDIATRIC PATIENTS” (Amicus Therapeutics, Inc., priority 2022, published 2026).

Legend:
CIMPR [1] = target: T1, CIMPR (Homo sapiens, UniProt P11717); experiment: CIMPR affinity chromatography (bound vs unbound rhGAA by GAA activity); format: binding
Description: Multiple batches of the rhGAA according to the disclosure were produced in shake flasks and in perfusion bioreactors using CHO cell line GA-ATB200, the product of which is referred to as “ATB200.” Weak anion exchange (“WAX”) liquid chromatography was used to fractionate ATB200 rhGAA according to terminal phosphate and sialic acid. Elution profiles were generated by eluting the ERT with increasing amount of salt. The profiles were monitored by UV (A280 nm).
To evaluate the ability of the conventional rhGAAs in MYOZYME® and LUMIZYME® to interact with the CIMPR, the two conventional rhGAA preparations were injected onto a CIMPR affinity column (which binds rhGAA having M6P groups) and the flow through collected. The bound material was eluted with a free M6 gradient. Fractions were collected in 96-well plate and GAA activity assayed by 4MU-α-glucosidase substrate. The relative amounts of unbound (flow through) and bound (M6P eluted) rhGAA were determined based on GAA activity and reported as the fraction of total enzyme. […] Indeed, only 27% of the rhGAA in MYOZYME® and 22% of the rhGAA in LUMIZYME® contained M6P that can be productive to target it to the CIMPR on muscle cells.

CIMPR [2] = target: T1, CIMPR; experiment: CIMPR plate binding assay
Protocol: In addition to having a greater percentage of rhGAA that can bind to the CIMPR, it is important to understand the quality of that interaction. LUMIZYME® and ATB200 receptor binding was determined using a CIMPR plate binding assay. Briefly, CIMPR-coated plates were used to capture GAA. Varying concentrations of rhGAA were applied to the immobilized receptor and unbound rhGAA was washed off. The amount of remaining rhGAA was determined by GAA activity. […] For LUMIZYME®, there is on average only 10% of molecules having a bis-phosphorylated N-glycan. In contrast, on average every rhGAA molecule in ATB200 has at least one bis-phosphorylated N-glycan.
N-glycan analysis via MALDI-TOF mass spectrometry confirmed that on average each ATB200 molecule contains at least one natural bis-M6P N-glycan structure.

Juvenile toxicology = format: in vivo
Protocol: The cipaglucosidase alfa dose of 30 mg/kg being evaluated in this protocol was determined from population PK modeling and simulation analyses that included pooled data from 96 adults and 11 pediatric subjects dosed at 20, 25, and 30 mg/kg, including 3 pediatric IOPD patients from the Expanded Access Program (EAP) (ages 1 to 3 years) at the 30 mg/kg dose level. The 30 mg/kg dose level in combination with additional effect from miglustat provided exposures that are well within the safety margin and multiples of exposure established by the juvenile toxicology no-observed-adverse effect-level (NOAEL) of 150 mg/kg.

[3] = tested on: pediatric patient with infantile Pompe disease; experiment: Example 16: pediatric IOPD patient switched from Myozyme to ATB200/AT2221; format: in vivo, human
Description: A patient with severe infantile Pompe disease presented. The patient underwent a comprehensive physical examination, measurement of GAA enzyme activity, genetic testing of the GAA gene and muscle biopsy to establish the diagnosis.
The patient received the high-dose enzyme replacement therapy with Myozyme after diagnosis. The patient responded very poorly to therapy. Due to rapidly progressing Pompe disease and inadequate response to therapy, the patient's survival was at risk. For the patient, the opportunity arose to receive the new ATB200/AT2221 ERT via a compassionate use/Expanded Access Program (EAP).
The index patient has regular measurement of the urinary Glc4-levels since the change of the ERT to ATB200. The Glc4-levels were determined by an established method from the Duke University. The analysis of Glc4 is standardized as a butyl-4-aminobenzoate derivative using [^13C6] Glc4 as the internal standard (IS). The measurement is performed as ultra-performance liquid chromatography-tandem mass spectrometry (UPLC-MS/MS). The Glc4-values are then normalized to creatinine.
The patient presented with IOPD at 6 months and was started on the standard dose of Myozyme (20 mg/kg/bi-weekly). Due to the inadequate response to therapy, the dose was doubled just one month after the start of therapy in form of a weekly administration of Myozyme. […] But the cardiological situation deteriorated progressively.
Therefore, just three months after initiation of therapy, the dose was again doubled to 40 mg/kg/weekly, so the patient received a total of four times the standard dose. With the intensification of ERT and cardiac therapy, the patient's condition initially stabilized. Nevertheless, over the next few months, the patient's general condition steadily deteriorated, and the patient decompensated, especially respiratory.
The patient was switched from Myozyme to ATB200/AT2221 after eight months of insufficient Myozyme therapy response. The patient was […] at the time of the therapy switch. The new therapy (via EAP) was initiated with the oral administration of 30 mg premedication AT2221 (Miglustat) one hour prior to enzyme administration. ATB200 was administered at a bi-weekly interval at a dosage of 20 mg/kg. In the further course of treatment, the dosage of premedication and ERT was repeatedly adjusted and optimized (see Table 22). Some actual dosages in Table 22 (e.g., 37 mg/kg and 34.5 mg/kg at 32 and 38 months, respectively) varied from the target dose (e.g., 30 mg/kg) to avoid waste of extra material left in vials.
The Gross Motor Function Measure 66 (GMFM 66) is used to quantify a patients' motor skills. The GMFM 66 is a worldwide standardized test developed and validated for children with cerebral palsy to measure the development of gross motor function over time. During testing 66 items are examined and a score from 0 to 100 points is possible.

clinical = settings: human, in vivo
Protocol: At 10Y7M of age, the blood of the patient was collected to gather pharmacokinetic (PK) data for their treatment that included weekly administration of 20 mg/kg ATB200 and 130 mg AT2221.
Blood sampling of the patient was conducted to gather pharmacokinetic (PK) data for their treatment that included administration of 25 mg/kg ATB200 and 195 mg AT2221 biweekly.
At 12Y5M of age, the patient has been receiving ATB200 (20 mg/kg) and AT2221 (195 mg) biweekly for 1 year. […] At this time, the PK levels of both ATB200 and AT2221 were taken from the patient.

T1 sequence (P11717 41-2491, species assumed): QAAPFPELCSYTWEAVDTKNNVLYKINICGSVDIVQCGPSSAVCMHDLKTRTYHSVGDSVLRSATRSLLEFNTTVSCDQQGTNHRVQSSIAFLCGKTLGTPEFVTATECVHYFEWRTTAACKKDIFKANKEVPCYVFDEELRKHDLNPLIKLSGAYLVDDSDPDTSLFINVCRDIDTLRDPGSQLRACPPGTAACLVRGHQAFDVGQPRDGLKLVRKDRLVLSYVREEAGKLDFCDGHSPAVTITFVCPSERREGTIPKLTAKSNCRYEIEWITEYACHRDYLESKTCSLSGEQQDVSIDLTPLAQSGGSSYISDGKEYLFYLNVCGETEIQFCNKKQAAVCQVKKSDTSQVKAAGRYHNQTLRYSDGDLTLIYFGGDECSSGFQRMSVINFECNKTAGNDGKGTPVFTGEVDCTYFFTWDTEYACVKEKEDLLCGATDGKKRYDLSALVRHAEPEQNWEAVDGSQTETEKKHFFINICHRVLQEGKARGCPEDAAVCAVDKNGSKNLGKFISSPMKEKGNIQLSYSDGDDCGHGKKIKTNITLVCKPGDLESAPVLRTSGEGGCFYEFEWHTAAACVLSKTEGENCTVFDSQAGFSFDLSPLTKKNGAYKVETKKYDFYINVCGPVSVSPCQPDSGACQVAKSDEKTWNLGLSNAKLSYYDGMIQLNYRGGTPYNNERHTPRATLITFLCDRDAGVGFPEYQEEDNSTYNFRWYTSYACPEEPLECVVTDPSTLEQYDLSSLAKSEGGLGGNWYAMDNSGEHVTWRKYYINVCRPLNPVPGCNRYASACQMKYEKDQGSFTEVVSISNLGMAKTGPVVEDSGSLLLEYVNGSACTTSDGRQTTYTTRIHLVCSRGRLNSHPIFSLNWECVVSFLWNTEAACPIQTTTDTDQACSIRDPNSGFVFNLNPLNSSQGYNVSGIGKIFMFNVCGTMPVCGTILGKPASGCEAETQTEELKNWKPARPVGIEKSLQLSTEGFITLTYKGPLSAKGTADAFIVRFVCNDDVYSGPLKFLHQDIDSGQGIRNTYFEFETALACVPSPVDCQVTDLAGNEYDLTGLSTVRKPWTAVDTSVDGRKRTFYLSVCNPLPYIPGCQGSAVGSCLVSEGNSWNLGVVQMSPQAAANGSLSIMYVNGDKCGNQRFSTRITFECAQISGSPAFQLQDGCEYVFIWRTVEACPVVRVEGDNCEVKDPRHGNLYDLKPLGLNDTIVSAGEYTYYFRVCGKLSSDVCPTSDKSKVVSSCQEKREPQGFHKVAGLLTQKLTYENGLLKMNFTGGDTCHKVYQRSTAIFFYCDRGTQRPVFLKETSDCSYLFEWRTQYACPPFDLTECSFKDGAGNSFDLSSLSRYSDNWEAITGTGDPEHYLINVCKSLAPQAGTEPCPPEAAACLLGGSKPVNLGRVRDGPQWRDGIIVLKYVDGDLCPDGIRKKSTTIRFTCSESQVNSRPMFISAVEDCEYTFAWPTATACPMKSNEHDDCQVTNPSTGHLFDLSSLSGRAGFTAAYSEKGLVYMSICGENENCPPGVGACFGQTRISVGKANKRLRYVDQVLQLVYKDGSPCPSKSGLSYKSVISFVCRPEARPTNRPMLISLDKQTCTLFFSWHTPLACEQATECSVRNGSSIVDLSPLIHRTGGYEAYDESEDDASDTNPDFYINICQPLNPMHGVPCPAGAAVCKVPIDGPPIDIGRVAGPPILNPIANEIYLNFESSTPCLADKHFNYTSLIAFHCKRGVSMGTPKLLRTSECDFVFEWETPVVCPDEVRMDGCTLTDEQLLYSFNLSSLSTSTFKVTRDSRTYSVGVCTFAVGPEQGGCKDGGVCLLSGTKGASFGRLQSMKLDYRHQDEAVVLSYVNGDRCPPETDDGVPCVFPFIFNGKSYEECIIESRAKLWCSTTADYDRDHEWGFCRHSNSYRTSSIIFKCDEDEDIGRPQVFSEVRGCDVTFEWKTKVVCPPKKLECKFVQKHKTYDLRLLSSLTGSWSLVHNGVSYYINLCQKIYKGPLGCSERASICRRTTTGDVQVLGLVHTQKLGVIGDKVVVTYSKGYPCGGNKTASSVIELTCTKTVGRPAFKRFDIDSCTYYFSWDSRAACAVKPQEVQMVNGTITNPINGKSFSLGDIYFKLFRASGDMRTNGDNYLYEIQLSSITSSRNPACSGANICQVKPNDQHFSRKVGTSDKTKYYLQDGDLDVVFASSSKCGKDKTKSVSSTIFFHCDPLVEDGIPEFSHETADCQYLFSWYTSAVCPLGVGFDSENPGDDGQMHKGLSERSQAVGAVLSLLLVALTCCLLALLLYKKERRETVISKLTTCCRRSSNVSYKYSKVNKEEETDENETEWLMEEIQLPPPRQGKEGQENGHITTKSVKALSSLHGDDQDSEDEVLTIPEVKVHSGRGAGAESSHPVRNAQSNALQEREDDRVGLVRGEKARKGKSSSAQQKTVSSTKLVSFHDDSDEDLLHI

With “ATB200: recombinant human acid α-glucosidase with a high content of N-glycans bearing mono-M6P and bis-M6P, produced from a GA-ATB200 cell line” as the substance, how does the “rhGAA that binds to the CIMPR (contains M6P)” value (CIMPR [1]; fraction of total enzyme by GAA activity) read?
Its value is “more than 70%”.

What about the CIMPR receptor binding (CIMPR [1]; purified ATB200 rhGAA from different production batches (FIG. 5)) of the same substance?
The CIMPR receptor binding was no less than 70%.

And the Kd (CIMPR [2]; M6P receptor plate binding assays)?
The Kd was 2 to 4 nM.

And the “binding to CIMPR” value (CIMPR [2]; compared with LUMIZYME (FIG. 10A))?
The value was “significantly better”.

And the “no-observed-adverse effect-level (NOAEL)” value (Juvenile toxicology)?
The value was 150 mg/kg.

What about the “GMFM 66 score” value ([3]; 16.5 months of ATB200 therapy) of the same substance?
The value was 17.0 points.

And the “GMFM 66 score” value ([3]; 24 months of ATB200 therapy)?
Its value is 24.0 points.

What about the “GMFM 66 score” value ([3]; 28 months of ATB200 therapy) of the same substance?
Its value is 29.3 points.

What about the “urinary Glc4 levels” value ([3]; biweekly 20 mg/kg) of the same substance?
The value was “remained relatively constant”.

And the “urinary Glc4 levels” value ([3]; dose increase to 25 mg/kg/bi-weekly and switch to weekly 30 mg/kg at 19 months of age)?
The value was “increase”.

And the “urinary Glc4 levels” value ([3]; since 32 months of age (FIG. 71))?
The value was “decrease of the values to the initial level”.

And the “AUC relative to adult percentiles” value (clinical)?
The value was “within the adult 10th-90th percentile”.

And the “Cmax relative to adult percentiles” value (clinical)?
Its value is “within the adult 10th-90th percentile”.
